# Experimental data from the RNAGym collection of RNA variant scans (doi:10.1073/pnas.2313332121).
# This sample holds only a part of the variants without activity.
# B1: TPR 5TU (parent)
# chain: GGAUCUUCUCGAUCUAACAAAAAAGACAAAUCUGCCACAAAGCUUGAGAGCAUCUUCGGAUGCAGAGGCGGCAGCCUUCGGUGGCGCGAUAGCGCCAACGUUCUCAACUAUGACACGCAAAACGCGUGCUCCGUUGAAUGGAGUUUAUCAUG
# Variants of: B1
# Experiment: polymerase ribozyme fitness, log enrichment relative to wild type (log ratio); higher = more active; in vitro selection for triplet polymerase activity
# How it was run: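 Mutant libraries of each subunit of a heterodimeric triplet polymerase ribozyme were built by PCR and transcribed. Each library went through one round of in vitro selection in triplicate: annealing with biotinylated primer, partner subunit and triplets, frozen incubation at −7 °C, gel excision of extended constructs, streptavidin-bead capture and RT-PCR. Input and output libraries were Illumina-sequenced; only genotypes with ≥10 input reads and ≥1 read per output were kept. Fitness is log2(genotype enrichment/wild-type enrichment), using inverse-variance-weighted replicate averages.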
row,Variant,polymerase ribozyme fitness (log ratio)
1,GGAUCUUCUCGCUCUAACAAAAAAGACAAAUCUGCCACUAAGCUUGAGAGCAUCUUCGGAUGCAGAGGCGGCAGCCUUCGGUGGCGCCAUAGCGCCAACGUUCUCAACUAUGACCCGCAAAACGCAUGCUCCGUUGAAUGGAGUUUAUCAUG [A12C A39U G88C A115C G126A],≤ -4.2
2,GGAUCUUCUCGCUCUAACAAAAAAGACAAAUCUGCCACAAAGCUUGAGAGCAACUUCGGAUGCAGAGGCGGCAGCCUUCGGUGGCGCGAUAGCGCCAACGUUCUCAACUAUGACACGCAAAACGGGUGCUCCGUUGAAUGGAGUUUAUCUGG [A12C U53A C125G A150U U151G],≤ -4.2
3,GGAUCUUCUCGCUCUAACAAGAAAGACAAAUCUGCAACAAAGCUUGAAAGCAUCUUCGGAUGCAGAGGCGGCAGCCUUCGGUGGCGCGAUAGAGCCAACGUUCUCAACUAUGACACGCAAAACGCGUGCUCCGUGGAAUGGAGUUUAUCAUG [A12C A21G C36A G48A C93A U135G],≤ -4.2
4,GGAUCUUCUCGCUCUAACAAAAAAGACAAAUCUGCCACAAAGUUUGAGAGCCUCUUCGGAUGCAGAGGCGGCAGCCUUCGGUGUCGCGAUAGGGCCAACGUUCUCAACUAUGACACGCAAAACGCGUGCUCGGUUGAAUGGAGUUUAUCAUG [A12C C43U A52C G84U C93G C132G],≤ -4.2
5,GGAUCUUCUCGCCCUAACAAAAAAGCGAAAUCUGCCACAAAGCUUGAGAGCAUCUUCGGAUGCAGAGGCAGCAGCCUUCGGUGGCGCGAUAGCGCGAACGUUCUCAACUAUGACACGCAAAACGCGUGCUCCGUUGAAUGGAGUUUAUCAUG [A12C U13C A26C C27G G70A C96G],≤ -4.2
6,GGAUCUUCUCGCUCUAACAAAAAAGACAAAUCUGCCACAAAGCUUGAGAGCGUCUUCGGAUGCAGAGUCGGCAGCCUUCGGUGGCGCGAUAGCGCCAUCGUUCUCAACUAUGACACGCAAAACGCGUGCUCCGUUGAAUGGAGUUUAUCAUG [A12C A52G G68U A98U],-4.19
7,GGAUCUUCUCGCUCUAACAAAAAAGACAAAUCUGCCCCAAAGCUUGAGAGCACCUUCGGAUGCAGAGGCGGCAGCCUUCGGUGGCUCGAUAGCGCCGACGUUCUCAACUAUGUCACGCAAAACGCGUGCUCCGUUGAAUGGAGUUUAUCAUG [A12C A37C U53C G86U A97G A113U],≤ -4.2
8,GGAUCUUCUCGCUCUAACAAAAAAGACAAAUCUGCCACAAAGCUUGAGAGCAUCUUCGGAUGCAGAGGCGGCAGCCUUCGGUGGCGUGAUAGCGCCAACGUUCUCAACUAUGACCCGCAAAACGCGUGCUCCGUUGAAUGGAGUUUAUCAUG [A12C C87U A115C],-1.97
9,GGAUCUUCUCGCUCUAACAAAAAAGACAAAACUGCCACAAAGCUUGGGAGCAUCUUCGGAUGCAGAGGCGGCAGCCUUAGGUGGCGCGAUAGCGCCAACGUUCUCAACUAUGACACGCAAAACGCGUGCUCCGUUGAAUGGAGUUUAUCAUG [A12C U31A A47G C79A],≤ -4.2
10,GGAUCUUCUCGCUCUAACAAAAAAGACAAAUCUGCCACAAAGCUUGAGAGCAUCUUCAGAUGCAGAGGCGGCAGCCUUCGGUGUCGCGAUAGCGCCAACGUUCUCAACUAUGACUCGCAAAACGCGUGCUCCGUUGAAUGGAGUUUAUCAUG [A12C G58A G84U A115U],-3.83
11,GGAUCUUCUCGCUCUAACAAAAAAGACAAAUCAGCCACAAAUCUUGAGAGCAUCUUCGGGUGCAGAGGCGGCAGCCUUCGGUGGCGCGAUAGGGCCAACGUUCUCAACUAUGACACGCAAAACGCGUGCUCCGUUGAAUGGAGUUUAUCAUG [A12C U33A G42U A60G C93G],≤ -4.2
12,GGAUCUUCUCGCUCUAACAAAAAAGACAAAUCUGCCACAAAGCUUGAGAGCAUCUUCGGAUGCAGAGGCGGCAGCCUUCGGUGGCGCGAUAGCGCCAACGUUCUCAACUAUGGCACGCAAAACGCGUGCUCCGUUGAAUGGAGUUUAUCAUG [A12C A113G],-2.73
13,GGAUCUUCUCGCUCUAACAAAAAAGACAAAUCUGCCACAAAGCUUGAGAGCAUCUUCGGAUGCAGAGGCGGCAGCCUUCGGUGACGCGAUAGCGCCAACGUUCUCAACUAUGACACGCAAAACGCGUGCUCCGUUGAAUGGAGUUUAUCAUG [A12C G84A],-0.118
14,GGAUCUUCUCGCUCUAACAAAAAAGACAAAUCUGCCACAAAGCUUGAGAGCAUCUUCGGAUGCAGAGGCGGCAGCAUUCGGUGGCGCGAUUGCGCCAACGUUCUCAACUAUGACACGCAAAACGCGUGCUCCGUUGAAUGGAGUUUAUCAUG [A12C C76A A91U],≤ -4.2
15,GGAUCUUCUCGCUCUAACAAAAAAGACAAAUCUGCCACAAAGCUUGAGAGCAUUUUCGGAUGCAGAGGCGGCAGCCUUCGGUGGCGCGAUAGCGCCAACGUUCUCAACUAUGACACGCAAAACGCGUGCUCCGUUGAAUGGAGUUUAUCAUG [A12C C54U],-0.207
16,GGAUCUUCUCGCUCUAACAAAAAAGACAAAUCUGCCACAAAGCUUGAGAGCCUCUUCGGAUGCAGAGGCGGCAGCCUUCGGUGGCGUGCUAGCGCCAACGUUCUCAACUAUGACACGCAAAACGCGUGCUCCGUUGAAUGGAGUUUAUCAUG [A12C A52C C87U A89C],-3.43
17,GGAUCUUCUCGCUCUAACAAAAAAGACAAAUCUGCCACAAAGCUUGAGAGCAUCUUCGGAUGCAGAGGCGGCAGCCUUCGGUGGCGCGAUAGCGCCAACGUUCUCAACUAUGGCACGCUAAACGCGUGCUCCGUUGAAUGGAGUAUAUCAUG [A12C A113G A119U U145A],-3.25
18,GGAUCUUCUCGCUCUAACAAAAAAGACAAAUCUGCCACAAAGCUUGAGAGCAUCUUCGGAUGCAGAGGCGGCAGCCUUCGGUGGCGAGAUAGCGCCAACGUUCUCAACUAUGACACGCAAAACGCGUGCCCCGUUGAAUGGAGUUUAUCAUG [A12C C87A U130C],≤ -4.2
19,GGAUCUUCUCGCUCUAACAAAAAAGAUAAAUCUGUCACAAAGCUUGAGAGCCUCUUCGGAUGCAGAGGCGGCAGACUUCGGUGGCGCGAUAGCGCCAACGUUCUCAACUAUGACCCGCAAAACGCGUGCUCCGUUGAAUGGAGUUUAUCAUG [A12C C27U C35U A52C C75A A115C],≤ -4.2
